± gives the uncertainty stated by the source.
Test: protein stability index of a GFP-peptide fusion (yeast GPS) (PSI 1-4); higher = more stable; sorted into four equal gates, so the index is relative within each strain
Procedure, shortened: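 Plasmids in a pooled yeast library fused tiled 17-residue yeast protein peptides downstream of GFP and also expressed Cherry. Mid-log cultures grown without leucine were sorted into four equal gates by GFP/Cherry fluorescence ratio. Each gate's plasmids were PCR-amplified and Illumina-sequenced, and reads were matched to strains by barcodes. The protein stability index is derived by multiplying each gate's read frequency by its gate number and summing the results.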

| Sequence | protein stability index (doa10∆) | protein stability index (pdr5∆) | protein stability index (san1∆) | protein stability index (ubr1∆) |
| --- | --- | --- | --- | --- |
| NFLQESYEVEHVIQIPL [TAF14] | 2.49 ± 0.094 | 2.94 ± 0.092 | 2.55 ± 0.067 | 2.81 ± 0.082 |
| NFPDEDDDDSRKSAPVD [SKP1] | 3.09 ± 0.046 | 3.2 ± 0.047 | 3.31 ± 0.04 | 3.27 ± 0.041 |
| NFTCNRKILNFKKDLVI [SWI1] | 2.66 ± 0.081 | 2.88 ± 0.063 | 2.46 ± 0.1 | 2.87 ± 0.075 |
| NFYLKRFISDLLWLVLI [SWI1] | 1.8 ± 0.054 | 1.88 ± 0.065 | 1.86 ± 0.095 | 1.59 ± 0.046 |
| NGAFQNSSNLSYNNTGI [RRP4] | 2.58 ± 0.069 | 2.85 ± 0.053 | 2.98 ± 0.045 | 2.84 ± 0.055 |
| NGEEDEVALFSQKAKLM [YLR335W/NUP2] | 1.16 ± 0.17 | 1.16 ± 0.13 | – | 1.17 ± 0.094 |
| NGERKFLKEKDTVAELQ [FAS2] | – | 3.38 ± 0.23 | 3.11 ± 0.24 | 3.02 ± 0.076 |
| NGNKDSSFNFNKNLPFV [SWI1] | 3.21 ± 0.058 | 3.38 ± 0.068 | 3.28 ± 0.051 | 3.31 ± 0.043 |
| NHMLIDSLNQLEIRNKI [RGR1] | 2.97 ± 0.097 | 3.04 ± 0.069 | 2.92 ± 0.079 | 3.08 ± 0.076 |
| NHNKTKLLKSLKNTKYF [PRP8] | 1.8 ± 0.078 | 1.83 ± 0.052 | 1.54 ± 0.095 | 2.15 ± 0.073 |
| NHTAHNQTRKAHRNGIK [RPL29] | 1.88 ± 0.047 | 2.56 ± 0.059 | 2.32 ± 0.06 | 2.57 ± 0.052 |
| NIDYQKGLLIWRLLFID [GRR1] | 1.9 ± 0.06 | 1.28 ± 0.063 | 1.22 ± 0.2 | 1.45 ± 0.068 |
| NIGETAGVVQDIGSDPT [RPB9] | 2.77 ± 0.089 | 3.25 ± 0.085 | 2.72 ± 0.11 | 2.92 ± 0.056 |
| NIKKKDTKDALSTRELA [RPC53] | – | – | – | 2.7 ± 0.29 |
| NILIASLMDTLITPAVR [YCG1] | 1.41 ± 0.063 | 1.91 ± 0.073 | 1.58 ± 0.13 | 1.78 ± 0.055 |
| NILLRERDSYKLLASTE [YIL149C/MLP2] | 2.59 ± 0.058 | 2.53 ± 0.055 | 2.49 ± 0.063 | 2.4 ± 0.055 |
| NILNMSMNNDFQQQQQQ [PGD1] | 2.68 ± 0.078 | 3.04 ± 0.084 | 2.83 ± 0.066 | 2.67 ± 0.071 |
| NINATNTSVLMKLKLMI [YCS4] | 2.08 ± 0.093 | 1.5 ± 0.079 | 1.48 ± 0.13 | 2.24 ± 0.077 |
| NIQGITKPAIRRLARRG [HHF1] | 3.27 ± 0.1 | 3.24 ± 0.093 | 2.89 ± 0.092 | 3.35 ± 0.066 |
| NIQHLLYGKRFFPYYVH [PRE7] | 1.25 ± 0.031 | 1.45 ± 0.037 | 1.36 ± 0.091 | 1.3 ± 0.039 |
| NISGEFFRNKLKYHDFL [RPL16B] | 2.35 ± 0.063 | 2.18 ± 0.068 | 2.22 ± 0.067 | 1.79 ± 0.044 |
| NISIITLELESFLEGSK [RGR1] | 2.44 ± 0.054 | 2.48 ± 0.059 | 2.75 ± 0.059 | 2.94 ± 0.071 |
| NISSSQQLLPAPQLFPY [DSN1] | 2.44 ± 0.12 | 2.71 ± 0.097 | 2.62 ± 0.078 | 2.84 ± 0.086 |
| NIVHNFKERQMMVSYPK [AAR2] | 3.04 ± 0.13 | 2.33 ± 0.1 | 1.9 ± 0.15 | 2.19 ± 0.18 |
| NKDSIEECGRTIHRSFT [CSN12] | 3.21 ± 0.067 | 3.13 ± 0.066 | 3.28 ± 0.043 | 3.12 ± 0.046 |
| NKEGTLEQREQNENLPS [SSN2] | 3.02 ± 0.11 | 3.06 ± 0.074 | 3.09 ± 0.057 | 3.05 ± 0.057 |
| NKGELETQPGCNEEQTL [RPO31] | 3.21 ± 0.16 | 3.38 ± 0.12 | 3.21 ± 0.2 | 3.2 ± 0.082 |

| Sequence | protein stability index (doa10∆) | protein stability index (pdr5∆) | protein stability index (san1∆) | protein stability index (ubr1∆) |
| --- | --- | --- | --- | --- |
| NKGLVVSPYDYNHKRVS [DIB1] | 2.39 ± 0.066 | 2.41 ± 0.066 | 1.61 ± 0.11 | 2.33 ± 0.087 |
| NKIKLNILKILSSLILK [SRB8] | 1.79 ± 0.072 | 1.73 ± 0.074 | – | 1.87 ± 0.053 |
| NKLFTEPIKLEPVKEYT [YMR129W/POM152] | 2.34 ± 0.05 | 2.39 ± 0.06 | 2.4 ± 0.084 | 2.4 ± 0.072 |
| NKLLGNVTIAQGGVLPN [HTA1] | 1.82 ± 0.053 | 1.66 ± 0.041 | 1.72 ± 0.058 | 1.61 ± 0.033 |
| NKLTGKQIVFEIPSETH [RPS7A] | 3 ± 0.09 | 2.95 ± 0.091 | 2.86 ± 0.068 | 2.78 ± 0.11 |
| NKLTGKQIVFEIPSQTN [RPS7B] | 2.79 ± 0.081 | 3.06 ± 0.13 | 2.88 ± 0.095 | 2.66 ± 0.086 |
| NKLVMKSKFNKSNRSYS [GAL11] | 2.92 ± 0.059 | 2.99 ± 0.099 | 3.01 ± 0.064 | 3.01 ± 0.053 |
| NKNQLLKRNRIRNARSI [POP1] | 2.93 ± 0.071 | 3.1 ± 0.071 | 2.84 ± 0.059 | 3 ± 0.055 |
| NKPAIKEDSTIQDSNGD [SWI3] | 2.92 ± 0.076 | 3.05 ± 0.073 | 3.14 ± 0.06 | 3.04 ± 0.054 |
| NKQSVSNLSPDLKFKRH [DSN1] | 2.95 ± 0.11 | 2.61 ± 0.22 | 3.32 ± 0.089 | 2.34 ± 0.2 |
| NKSFIVDQGQIYRDRST [ITC1] | 3.1 ± 0.11 | 3.35 ± 0.12 | 3.32 ± 0.064 | 3.32 ± 0.052 |
| NKTLTFETETEVTFKNA [FAS1] | 3.15 ± 0.078 | 3.23 ± 0.093 | 3.28 ± 0.084 | 3.35 ± 0.049 |
| NKVCRIEAASTTQDQCK [RPB8] | 2.66 ± 0.056 | 2.89 ± 0.07 | 2.63 ± 0.075 | 2.93 ± 0.063 |
| NKVSYYGNPTSKESWRY [RTT102] | 3.23 ± 0.11 | 3.19 ± 0.13 | 2.84 ± 0.17 | 3.42 ± 0.098 |
| NLDGTKAVKLRKSYKNQ [ROX3] | 3.43 ± 0.1 | 3.36 ± 0.096 | 3.39 ± 0.067 | 3.58 ± 0.046 |
| NLKVELKEQSEQLKEQM [SMC4] | 3.27 ± 0.055 | 3.2 ± 0.067 | 3.29 ± 0.035 | 3.2 ± 0.057 |
| NLLCYYNLRSLNLINAK [RPN3] | 1.48 ± 0.049 | 1.71 ± 0.06 | 1.36 ± 0.12 | 1.25 ± 0.041 |
| NLLIQRLNFNQNSSKIV [SWI3] | 2.71 ± 0.053 | 2.81 ± 0.051 | 3.06 ± 0.038 | 2.93 ± 0.041 |
| NLMGNRNNHNSNTSTSK [SNF12] | 3 ± 0.073 | 3.17 ± 0.096 | 2.92 ± 0.12 | 3.07 ± 0.054 |
| NLNDKFGIYILTQGING [MED1] | 1.54 ± 0.04 | 1.47 ± 0.032 | 1.6 ± 0.096 | 1.43 ± 0.031 |
| NLQAKPLVGKPKTELTK [YAR002W/NUP60] | 2.72 ± 0.098 | 2.52 ± 0.067 | 2.7 ± 0.088 | 2.39 ± 0.1 |
| NLQGDLQAIQEKLNKTD [ITC1] | – | 3.33 ± 0.21 | 3.33 ± 0.17 | 3.2 ± 0.16 |
| NLQIRQLFNWCLMRSLH [DSN1] | 1.26 ± 0.092 | 1.19 ± 0.061 | 1.04 ± 0.17 | 1.12 ± 0.13 |
| NLRKSRGMLGLLEPPAK [RPO31] | 1.61 ± 0.22 | 1.18 ± 0.21 | – | – |
| NLSLYEATAASHERFFL [CSN12] | 2.35 ± 0.065 | 2.73 ± 0.072 | 2.08 ± 0.12 | 2.62 ± 0.065 |
| NLSSLIVEINNVSNTFN [YJL041W/NSP1] | 2.45 ± 0.043 | 2.72 ± 0.046 | 2.62 ± 0.04 | 2.58 ± 0.032 |

Source: the supplement of paper PMC9732359
